From PMC3564486 (Developmental cell, 2011)
Numbering of substitutions follows the chain as printed.

T1: LRP6_(P3E3P4E4), wild type (human, UniProt O75581 629-1244)
T1 sequence (looked up): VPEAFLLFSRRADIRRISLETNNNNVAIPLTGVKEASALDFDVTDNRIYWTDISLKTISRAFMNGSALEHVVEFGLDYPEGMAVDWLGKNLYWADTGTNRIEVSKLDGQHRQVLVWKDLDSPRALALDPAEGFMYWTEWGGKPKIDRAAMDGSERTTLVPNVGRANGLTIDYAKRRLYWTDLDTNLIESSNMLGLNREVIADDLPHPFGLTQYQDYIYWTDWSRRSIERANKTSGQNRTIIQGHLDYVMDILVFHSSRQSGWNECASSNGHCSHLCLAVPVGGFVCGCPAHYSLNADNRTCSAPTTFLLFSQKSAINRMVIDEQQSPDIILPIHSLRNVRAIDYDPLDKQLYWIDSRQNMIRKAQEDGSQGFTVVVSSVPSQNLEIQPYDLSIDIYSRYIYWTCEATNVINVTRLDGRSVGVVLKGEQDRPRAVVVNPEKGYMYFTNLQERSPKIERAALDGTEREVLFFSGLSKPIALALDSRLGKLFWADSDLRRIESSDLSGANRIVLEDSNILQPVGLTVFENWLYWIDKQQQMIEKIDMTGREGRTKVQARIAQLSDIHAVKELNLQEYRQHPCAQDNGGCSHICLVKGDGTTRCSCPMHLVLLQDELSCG

T2: LRP6_(P3E3P4E4) N813A (human, UniProt O75581 629-1244, N813A)
T2 sequence (looked up): T1 sequence (looked up) with N185A

T3: LRP6_(P3E3P4E4) Y706A (human, UniProt O75581 629-1244, Y706A)
T3 sequence (looked up): T1 sequence (looked up) with Y78A

T4: LRP6_(P3E3P4E4) E708A (human, UniProt O75581 629-1244, E708A)
T4 sequence (looked up): T1 sequence (looked up) with E80A

T5: LRP6_(P3E3P4E4) W767A (human, UniProt O75581 629-1244, W767A)
T5 sequence (looked up): T1 sequence (looked up) with W139A

T6: LRP6 ectodomain (LRP6ECD) (human, UniProt O75581 20-1361)
T6 sequence (looked up): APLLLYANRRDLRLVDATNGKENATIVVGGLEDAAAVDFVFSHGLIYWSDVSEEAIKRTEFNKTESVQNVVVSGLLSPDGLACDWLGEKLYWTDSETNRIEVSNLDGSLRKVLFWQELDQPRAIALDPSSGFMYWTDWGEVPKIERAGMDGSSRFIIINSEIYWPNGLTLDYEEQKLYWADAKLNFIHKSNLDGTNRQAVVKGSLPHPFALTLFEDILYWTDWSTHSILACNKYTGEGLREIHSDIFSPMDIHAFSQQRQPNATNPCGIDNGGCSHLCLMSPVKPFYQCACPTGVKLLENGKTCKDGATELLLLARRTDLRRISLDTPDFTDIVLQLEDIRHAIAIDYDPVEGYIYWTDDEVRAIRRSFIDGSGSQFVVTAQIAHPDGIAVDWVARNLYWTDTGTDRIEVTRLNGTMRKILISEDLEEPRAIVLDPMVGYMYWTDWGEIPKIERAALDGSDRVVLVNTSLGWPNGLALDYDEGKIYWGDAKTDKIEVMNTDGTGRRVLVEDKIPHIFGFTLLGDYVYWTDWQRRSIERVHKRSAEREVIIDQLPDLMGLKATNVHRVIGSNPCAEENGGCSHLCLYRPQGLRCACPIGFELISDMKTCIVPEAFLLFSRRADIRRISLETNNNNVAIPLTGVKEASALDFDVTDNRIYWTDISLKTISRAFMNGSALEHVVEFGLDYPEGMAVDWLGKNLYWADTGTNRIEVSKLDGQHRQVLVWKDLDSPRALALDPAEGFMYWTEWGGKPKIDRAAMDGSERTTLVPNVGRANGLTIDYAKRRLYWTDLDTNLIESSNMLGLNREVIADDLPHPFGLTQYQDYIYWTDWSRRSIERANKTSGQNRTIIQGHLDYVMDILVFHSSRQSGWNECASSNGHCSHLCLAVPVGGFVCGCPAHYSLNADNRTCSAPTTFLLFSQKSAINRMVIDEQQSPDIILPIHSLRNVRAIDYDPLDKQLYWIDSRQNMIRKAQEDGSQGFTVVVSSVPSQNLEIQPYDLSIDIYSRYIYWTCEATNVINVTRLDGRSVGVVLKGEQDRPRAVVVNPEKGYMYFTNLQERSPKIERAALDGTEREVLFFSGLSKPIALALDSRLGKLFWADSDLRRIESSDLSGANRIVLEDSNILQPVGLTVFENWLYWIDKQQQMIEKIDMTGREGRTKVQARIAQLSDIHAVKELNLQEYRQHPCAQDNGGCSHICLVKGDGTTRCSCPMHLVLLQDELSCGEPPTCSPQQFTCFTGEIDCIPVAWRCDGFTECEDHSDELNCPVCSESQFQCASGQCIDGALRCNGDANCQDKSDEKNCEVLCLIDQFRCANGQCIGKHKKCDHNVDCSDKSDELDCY

B1: Dickkopf 1 (Dkk1) (ligand, human, UniProt O94907 32-266, looked up)
chain: TLNSVLNSNAIKNLPPPLGGAAGHPGSAVSAAPGILYPGGNKYQTIDNYQPYPCAEDEECGTDEYCASPTRGGDAGVQICLACRKRRKRCMRHAMCCPGNYCKNGICVSSDQNHFRGEIEETITESFGNDHSTLDGYSRRTTLSSKMYHTKGQEGSVCLRSSDCASGLCCARHFWSKICKPVLKEGQVCTKHRRKGSHGLEIFQRCYCGEGLSCRIQKDHHQASNSSRLHTCQRH
B2: human Mesd with an internal Flag tag (co-expressed with LRP6ECD) (natural protein, UniProt Q14696-1 34-234, looked up)
chain: AEGSPGTPDESTPPPRKKKKDIRDYNDADMARLLEQWEKDDDIEEGDLPEHKRPSAPVDFSKIDPSKPESILKMTKKGKTLMMFVTVSGSPTEKETEEITSLWQGSLFNANYDVQRFIVGSDRAIFMLRDGSYAWEIKDFLVGQDRCADVTLEGQVYPGKGGGSKEKNKTKQDKGKKKKEGDLKSRSSKEENRAGNKREDL

How the values were obtained:
[1] = molecular target: T1, LRP6_(P3E3P4E4), wild type; assay: SPR
LRP6_(P3E3P4E4) N813A = molecular target: T2, LRP6_(P3E3P4E4) N813A; assay: SPR
LRP6_(P3E3P4E4) Y706A = molecular target: T3, LRP6_(P3E3P4E4) Y706A; assay: SPR
LRP6_(P3E3P4E4) E708A = molecular target: T4, LRP6_(P3E3P4E4) E708A; assay: SPR
LRP6_(P3E3P4E4) W767A = molecular target: T5, LRP6_(P3E3P4E4) W767A; assay: SPR
[2] = molecular target: T6, LRP6 ectodomain (LRP6ECD); assay: SEC-MALS

| Binder | Kd [1] [nM] | binding result (LRP6_(P3E3P4E4) N813A) | binding result (LRP6_(P3E3P4E4) Y706A) | binding result (LRP6_(P3E3P4E4) E708A) | binding result (LRP6_(P3E3P4E4) W767A) | stoichiometry N [2] |
| --- | --- | --- | --- | --- | --- | --- |
| B1 | 58 | binds | binds | binds | binds | – |
| B2 | – | – | – | – | – | 1 |
